Results on 23 molecules are retold here after patent US20250114463A1, “LIVER-TARGETED DRUG AND USE THEREOF” (HANMI PHARM. CO., LTD., priority 2021, published 2025).

Holding throughout (assay): cell-based or functional assay
The target in one assay is human GLP-1 receptor (human, UniProt P43220 24-463).
A further assay has as its target T1, human GIP receptor (human, UniProt P48546 22-466).
T1 sequence (looked up): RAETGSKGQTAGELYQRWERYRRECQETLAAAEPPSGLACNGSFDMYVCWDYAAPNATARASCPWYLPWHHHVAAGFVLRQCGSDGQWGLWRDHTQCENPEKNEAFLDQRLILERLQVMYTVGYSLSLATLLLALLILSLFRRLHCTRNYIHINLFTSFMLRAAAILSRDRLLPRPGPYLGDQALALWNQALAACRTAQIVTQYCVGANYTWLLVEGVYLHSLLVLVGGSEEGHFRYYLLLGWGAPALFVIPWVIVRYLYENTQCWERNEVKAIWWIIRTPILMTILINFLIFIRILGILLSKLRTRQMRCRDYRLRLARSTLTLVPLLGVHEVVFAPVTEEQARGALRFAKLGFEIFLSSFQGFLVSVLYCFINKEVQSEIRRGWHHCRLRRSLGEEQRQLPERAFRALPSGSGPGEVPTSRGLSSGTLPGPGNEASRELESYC

The target of a further assay is human GCG receptor (human, UniProt P47871 26-477).

Bridges are numbered along the chain shown (N, C = ends). Where no end group is shown, it is not given here. [ ]: non-standard residue; d: D form. The star is where a group is joined. Acetyl(2-(4-imidazolyl)) = O=C(Cc1c[nH]cn1)*; Aib = CC(C)(N)C(=O)O Bounds are passed on as bounds.

Chain of human GCG receptor (P47871 26-477): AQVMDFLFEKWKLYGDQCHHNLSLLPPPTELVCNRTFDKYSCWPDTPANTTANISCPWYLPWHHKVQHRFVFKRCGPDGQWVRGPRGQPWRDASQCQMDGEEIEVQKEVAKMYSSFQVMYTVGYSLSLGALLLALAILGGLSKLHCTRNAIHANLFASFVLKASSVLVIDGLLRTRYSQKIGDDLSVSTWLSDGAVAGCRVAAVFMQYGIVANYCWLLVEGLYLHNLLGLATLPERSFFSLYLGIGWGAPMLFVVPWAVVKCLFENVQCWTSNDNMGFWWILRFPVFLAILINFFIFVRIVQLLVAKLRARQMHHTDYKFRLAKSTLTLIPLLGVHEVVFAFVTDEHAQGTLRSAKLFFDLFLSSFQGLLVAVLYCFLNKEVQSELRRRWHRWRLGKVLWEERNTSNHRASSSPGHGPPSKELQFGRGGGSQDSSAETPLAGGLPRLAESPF

Regarding Y[Aib]QGTFTSDYSKYLDEKAAKEFVQWLLDHHPSSGQPPPSC (bridge 16-20; not fully specified (C-terminus)) [triple agonist of SEQ ID NO: 75], the “in vitro Activity Compared to Native Peptide (%), vs GLP-1” value in the assay with human GLP-1 receptor was 35.1%. Further, the “in vitro Activity Compared to Native Peptide (%), vs GIP” value with human GIP receptor came to 18%. In addition, in the assay with human GCG receptor, the “in vitro Activity Compared to Native Peptide (%), vs Glucagon” value stood at 8.5%.

Turning to Y[Aib]QGTFTSDCSKYLDERAAKDFVQWLLDHHPSSGQPPPS (bridge 16-20; not fully specified (C-terminus)) [triple agonist of SEQ ID NO: 72], the “in vitro Activity Compared to Native Peptide (%), vs GLP-1” value with human GLP-1 receptor was determined as 11.5%. Moreover, in the assay with human GIP receptor, the “in vitro Activity Compared to Native Peptide (%), vs GIP” value was 1.6%. Also, the “in vitro Activity Compared to Native Peptide (%), vs Glucagon” value in the assay with human GCG receptor turned out to be 1%.

[Acetyl(2-(4-imidazolyl))][Aib]QGTFTSDYSKYLDECRAKEFVQWLLDHHPSSGQPPPS (bridge 16-20; not fully specified (C-terminus)) [triple agonist of SEQ ID NO: 73]: the “in vitro Activity Compared to Native Peptide (%), vs GLP-1” value in the assay with human GLP-1 receptor stood at 22.6%. In the assay with human GIP receptor, the “in vitro Activity Compared to Native Peptide (%), vs GIP” value was found to be 3%. Besides, in the assay with human GCG receptor, the “in vitro Activity Compared to Native Peptide (%), vs Glucagon” value stood at 5.4%.

For the molecule Y[Aib]QGTFTSDYSKYLDERACKDFVQWLLDHHPSSGQPPPS (bridge 16-20; not fully specified (C-terminus)) [triple agonist of SEQ ID NO: 71], the “in vitro Activity Compared to Native Peptide (%), vs GLP-1” value in the assay with human GLP-1 receptor is 90.1%. Further, the “in vitro Activity Compared to Native Peptide (%), vs GIP” value with human GIP receptor stood at 94.7%. In addition, the “in vitro Activity Compared to Native Peptide (%), vs Glucagon” value with human GCG receptor was 12.7%.

As to H[Aib]QGTFTSDVSKYLDGQAAKEFVAWLLKGC (not fully specified (C-terminus)) [triple agonist of SEQ ID NO: 7], in the assay with human GLP-1 receptor, the “in vitro Activity Compared to Native Peptide (%), vs GLP-1” value was found to be 13.7%. Also, in the assay with human GIP receptor, the “in vitro Activity Compared to Native Peptide (%), vs GIP” value is less than 0.1%. The “in vitro Activity Compared to Native Peptide (%), vs Glucagon” value with human GCG receptor is less than 0.1%.

As to [Acetyl(2-(4-imidazolyl))][Aib]QGTFTSDYSIAMDEKHCKDFVNWLLNTK (bridge 16-20; not fully specified (C-terminus)) [triple agonist of SEQ ID NO: 60], the “in vitro Activity Compared to Native Peptide (%), vs GLP-1” value with human GLP-1 receptor came to 106%. For the same molecule, the “in vitro Activity Compared to Native Peptide (%), vs GIP” value in the assay with human GIP receptor was 8.2%. Further, the “in vitro Activity Compared to Native Peptide (%), vs Glucagon” value with human GCG receptor is less than 0.1%.

On to Y[Aib]QGTFTSDYSKYLDECAAKEFVQWLLDHHPSSGQPPPS (bridge 16-20; not fully specified (C-terminus)) [triple agonist of SEQ ID NO: 64], for which the “in vitro Activity Compared to Native Peptide (%), vs GLP-1” value with human GLP-1 receptor was 64.6%. For the same molecule, in the assay with human GIP receptor, the “in vitro Activity Compared to Native Peptide (%), vs GIP” value was determined as 92.9%. In addition, in the assay with human GCG receptor, the “in vitro Activity Compared to Native Peptide (%), vs Glucagon” value is 60.1%.

Turning to [Acetyl(2-(4-imidazolyl))][Aib]QGTFTSDKSKYLDERAAQDFVQWLLDGGPSSGAPPPS (not fully specified (C-terminus)) [triple agonist of SEQ ID NO: 62], in the assay with human GLP-1 receptor, the “in vitro Activity Compared to Native Peptide (%), vs GLP-1” value came out at 5.2%. In addition, in the assay with human GIP receptor, the “in vitro Activity Compared to Native Peptide (%), vs GIP” value is less than 0.1%. Also, the “in vitro Activity Compared to Native Peptide (%), vs Glucagon” value in the assay with human GCG receptor is less than 0.1%.

On to H[Aib]QGTFTSDYSKYLDEKRQKEFVQWLLNTKC (bridge 16-20; not fully specified (C-terminus)) [triple agonist of SEQ ID NO: 58], for which the “in vitro Activity Compared to Native Peptide (%), vs GLP-1” value with human GLP-1 receptor came out at 39.1%. Besides, the “in vitro Activity Compared to Native Peptide (%), vs GIP” value in the assay with human GIP receptor stood at 0.2%. Also, in the assay with human GCG receptor, the “in vitro Activity Compared to Native Peptide (%), vs Glucagon” value stood at 2.6%.

For H[Aib]QGTFTSDVSKYLDGQAAQEFVAWLLKGC (not fully specified (C-terminus)) [triple agonist of SEQ ID NO: 8], the “in vitro Activity Compared to Native Peptide (%), vs GLP-1” value with human GLP-1 receptor was 14.2%. For the same molecule, the “in vitro Activity Compared to Native Peptide (%), vs GIP” value with human GIP receptor is less than 0.1%. The “in vitro Activity Compared to Native Peptide (%), vs Glucagon” value with human GCG receptor was 0.1%.

As to Y[Aib]QGTFTSDYSKCLDEKRAKDFVQWLLDHHPSSGQPPPS (bridge 16-20; not fully specified (C-terminus)) [triple agonist of SEQ ID NO: 70], the “in vitro Activity Compared to Native Peptide (%), vs GLP-1” value in the assay with human GLP-1 receptor stood at 15.1%. In the assay with human GIP receptor, the “in vitro Activity Compared to Native Peptide (%), vs GIP” value came to 64.4%. The “in vitro Activity Compared to Native Peptide (%), vs Glucagon” value in the assay with human GCG receptor was determined as 71.3%.

On to [Acetyl(2-(4-imidazolyl))][Aib]QGTFTSDYSKCLDEKRAKEFVQWLLDHHPSSGQPPPS (bridge 16-20; not fully specified (C-terminus)) [triple agonist of SEQ ID NO: 74], for which the “in vitro Activity Compared to Native Peptide (%), vs GLP-1” value with human GLP-1 receptor was determined as 12.9%. Also, the “in vitro Activity Compared to Native Peptide (%), vs GIP” value with human GIP receptor was determined as 1%. For the same molecule, the “in vitro Activity Compared to Native Peptide (%), vs Glucagon” value with human GCG receptor stood at 0.9%.

As for Y[Aib]QGTFTSDYSKYLDECAAKDFVQWLLDHHPSSGQPPPS (bridge 16-20; not fully specified (C-terminus)) [triple agonist of SEQ ID NO: 67], in the assay with human GLP-1 receptor, the “in vitro Activity Compared to Native Peptide (%), vs GLP-1” value worked out at 28.5%. Besides, the “in vitro Activity Compared to Native Peptide (%), vs GIP” value in the assay with human GIP receptor turned out to be 39.8%. Further, the “in vitro Activity Compared to Native Peptide (%), vs Glucagon” value with human GCG receptor was found to be 46.2%.

On to Y[Aib]QGTFTSDYSKCLDEKAAKEFVQWLLDHHPSSGQPPPS (bridge 16-20; not fully specified (C-terminus)) [triple agonist of SEQ ID NO: 68], for which the “in vitro Activity Compared to Native Peptide (%), vs GLP-1” value with human GLP-1 receptor amounted to 27.9%. In addition, in the assay with human GIP receptor, the “in vitro Activity Compared to Native Peptide (%), vs GIP” value was found to be 107%. The “in vitro Activity Compared to Native Peptide (%), vs Glucagon” value with human GCG receptor was 8.8%.

For the molecule H[Aib]QGTFTSDYSKCLDEKRAKEFVQWLLDHHPSSGQPPPS (bridge 16-20; not fully specified (C-terminus)) [triple agonist of SEQ ID NO: 65], in the assay with human GLP-1 receptor, the “in vitro Activity Compared to Native Peptide (%), vs GLP-1” value worked out at 95.4%. Moreover, the “in vitro Activity Compared to Native Peptide (%), vs GIP” value in the assay with human GIP receptor worked out at 11.6%. Also, the “in vitro Activity Compared to Native Peptide (%), vs Glucagon” value in the assay with human GCG receptor was 25.2%.

With Y[Aib]QGTFTSDYSKCLDERAAKEFVQWLLDHHPSSGQPPPS (bridge 16-20; not fully specified (C-terminus)) [triple agonist of SEQ ID NO: 69], the “in vitro Activity Compared to Native Peptide (%), vs GLP-1” value in the assay with human GLP-1 receptor stood at 24.3%. Besides, in the assay with human GIP receptor, the “in vitro Activity Compared to Native Peptide (%), vs GIP” value came out at 62.8%. In addition, the “in vitro Activity Compared to Native Peptide (%), vs Glucagon” value with human GCG receptor turned out to be 9.6%.

Turning to H[Aib]QGTFTSDYSKYLDEKRQKEFVQWLLDTKC (bridge 16-20; not fully specified (C-terminus)) [triple agonist of SEQ ID NO: 78], in the assay with human GLP-1 receptor, the “in vitro Activity Compared to Native Peptide (%), vs GLP-1” value was 51%. Moreover, in the assay with human GIP receptor, the “in vitro Activity Compared to Native Peptide (%), vs GIP” value amounted to 0.12%. Besides, the “in vitro Activity Compared to Native Peptide (%), vs Glucagon” value in the assay with human GCG receptor is 14%.

Take Y[Aib]QGTFTSDYSKYLDEKRAKDFVQWLLDHHPSSGQPPPSC (bridge 16-20; not fully specified (C-terminus)) [triple agonist of SEQ ID NO: 76]: in the assay with human GLP-1 receptor, the “in vitro Activity Compared to Native Peptide (%), vs GLP-1” value is 10.3%. The “in vitro Activity Compared to Native Peptide (%), vs GIP” value in the assay with human GIP receptor was 11.7%. The “in vitro Activity Compared to Native Peptide (%), vs Glucagon” value in the assay with human GCG receptor amounted to 47.6%.

In the case of Y[Aib]QGTFTSDYSKYLDEKAAKDFVQWLLDHHPSSGQPPPSC-NH2 (bridge 16-20) [triple agonist of SEQ ID NO: 77], in the assay with human GLP-1 receptor, the “in vitro Activity Compared to Native Peptide (%), vs GLP-1” value is 38.7%. Moreover, the “in vitro Activity Compared to Native Peptide (%), vs GIP” value with human GIP receptor worked out at 35.5%. In the assay with human GCG receptor, the “in vitro Activity Compared to Native Peptide (%), vs Glucagon” value was found to be 12.2%.

In the case of [Acetyl(2-(4-imidazolyl))][Aib]QGTFTSDYSIAMDEIACKDFVNWLLNTK (bridge 16-20; not fully specified (C-terminus)) [triple agonist of SEQ ID NO: 61], in the assay with human GLP-1 receptor, the “in vitro Activity Compared to Native Peptide (%), vs GLP-1” value is 59.8%. In addition, the “in vitro Activity Compared to Native Peptide (%), vs GIP” value with human GIP receptor turned out to be 2.8%. Moreover, the “in vitro Activity Compared to Native Peptide (%), vs Glucagon” value with human GCG receptor was less than 0.1%.

For the molecule Y[Aib]QGTFTSDYSKYLDECRAKDFVQWLLDHHPSSGQPPPS (bridge 16-20; not fully specified (C-terminus)) [triple agonist of SEQ ID NO: 66], the “in vitro Activity Compared to Native Peptide (%), vs GLP-1” value with human GLP-1 receptor is 15.8%. Moreover, the “in vitro Activity Compared to Native Peptide (%), vs GIP” value with human GIP receptor was determined as 17.2%. Besides, the “in vitro Activity Compared to Native Peptide (%), vs Glucagon” value with human GCG receptor worked out at 172%.

For [Acetyl(2-(4-imidazolyl))][Aib]QGTFTSDYSICMDEKHQKDFVNWLLNTK (bridge 16-20; not fully specified (C-terminus)) [triple agonist of SEQ ID NO: 59], in the assay with human GLP-1 receptor, the “in vitro Activity Compared to Native Peptide (%), vs GLP-1” value stood at 40.3%. In addition, the “in vitro Activity Compared to Native Peptide (%), vs GIP” value with human GIP receptor worked out at 4%. Further, in the assay with human GCG receptor, the “in vitro Activity Compared to Native Peptide (%), vs Glucagon” value was less than 0.1%.

In the case of [Acetyl(2-(4-imidazolyl))][Aib]QGTFTSDCSKYLDERAAQDFVQWLLDGGPSSGAPPPS (not fully specified (C-terminus)) [triple agonist of SEQ ID NO: 63], in the assay with human GLP-1 receptor, the “in vitro Activity Compared to Native Peptide (%), vs GLP-1” value was found to be 15.3%. In the assay with human GIP receptor, the “in vitro Activity Compared to Native Peptide (%), vs GIP” value was less than 0.1%. Moreover, in the assay with human GCG receptor, the “in vitro Activity Compared to Native Peptide (%), vs Glucagon” value is less than 0.1%.
